# Results as given in the DeepSol protein solubility set.
# Test: soluble on expression in E. coli; label from the status in PepcDB or PDB records
row,Sequence,soluble on expression in E. coli
1,MAHHHHHHMQRMRRIGREEEAARLVWNHVSHCSSALLRQCIRRPNLLEEVTVALCRTMHRGISGRKDSWMGHRSLAVLRSGAALRQFTPALCIPLCAAALDCGVHFATVQQHVAEIYRWDERTERWVLNMVRLIADCHSALMRVPLNCSLHSSYMRGLVQRVAYELPTLSSTCSIEVQVPSRNKLLALWTIVNDDVANGRLRQLTCQLFLDPVARSAFKEMRLADEVDNCNSGTDGGGGSKCRVPRSTLKGLLNEEVFVSVAVNCTTEHAFAIFMNAFLSTRQARDKLRYMHLVLSEMPFESTDICPRCTTETGNCEVS,not soluble
2,MAHHHHHHMQRQVIRRLGNRSAFPLVAAVARSSQIRGAVRGDSGSRARVIPSFMCSLRAYSGGHHEEPSSRSGQYLLDKSDVLTRVLEVVKNFEKVDASKVTPESHFVKDLGLNSLDVVEVVFAIEQEFILDIPDHDAEKIQSIPDAVEYIAQNPMAK,soluble
3,MAHHHHHHMRADSVSQTRKQQPNSSALGDDGDDEGANGEVEGRPMRQCMHITDKEIVIKLQNWFCDSNEIAGEWEAAGKTESRRSGASSNLEISQTIPFHSSHKSSLGKSASSSTLRPSNTCIPADLSAPLDGAPSLEVSTTSETRKIHSARGPRADERASRPYRTPSTDAVRYCAVYLRHFATIHQQHPYENSRQEQLLPTLAPEPLTAPLVALLTPWERNFIYRDILGQTEEQVSRAMEIVEHSPNMSYTYPTPFLKVSGISRVLLVEPPAAERVALLLRVMRAAEVLQVPSLRSLCAAWCADFIVRASYGARDHFEAAALVRRCFQVQNDWSRKEMDCLKLENEWPVNEEEY,not soluble
4,MAHHHHHHMRGTTKPMLFLCSTAVRLNFFPLGLSAGPLNSHILLPRNNFDGRTTHGMKKIQGQSKDPQMVMSRDELKLRCEYCRFEWIHDTLCVRCPAQPSHDQREMWLHSTWMWGKQQPYKYYKYMPAVRNPRTGMPMAREDARGMNNERRGQGLTTRTLNLEKERRGISRDVSRIGQYNTRWKTRFPFPT,not soluble
5,MAHHHHHHMRNVVQKYLCRKNNFPGFCSKRNVCTLSQKKNLSAYKIYTDGLLHSEFSTELKTTNEVNRLPIFRVLDTEGNLLDGHNAPFEEEEIVKLYKQMVEFSIWDEIFYGIQRQGRISFYIVNDGEEGIQFGLGKVLTPDDHLYCQYRETGILLSRGFDYADIINQLFGNKYDEGKGRQMCICYTSKKLNIHTITTPLASQLSHAAGCGYALKLKNEKAVAATFCGDGSSSEGDFYAALNFAAVRESQTMFICKNNLYAISTSIKDQYRGDGVAPRALALGIESVRVDGNDLFATYLAAKKMREICTEESKPVFMEFMAYRYGHHSTSDDSSLYRPKEENDAWKKEGVHPISRLFLYLKNKKLYTDKDDELHRKAIKEKVLKELKKHESIKRYNIVGGLFENVYHEEDWNLKEQRESFEQFFKQHKGCYDTSKFEG,not soluble
6,MAHHHHHHMRRQTRLFSRLAVEIPNSHWLPRRLLLVRHGESEANVDRSQYSRIPDWKIPLTERGRAQALDCGRRLRNIIKNEKLYIYYSPYVRTQQTLAEVRKSLEESQVQGEREDERLREQEIGNFQPLDKMDRTWDERSNFGRSYYRFPDGESSVDVGDRVSTFFDSLFRERLELYSLSAGDPEDEDGPLNVPGEDDQNVLIISHGLLIRLFIARWFRVPLEAFETMRNPPNCSIVVLERQESARMVMTDISKKLFGSDPLLEMMKFDGKDSTKRYRHMFFSDHSGSFTPAEGV,not soluble
7,MAHHHHHHMRSNGAAHIGNNTFLAVTRDVTDTAFLFSSSFSPAEQLVRLPLSRKTRFLPHASLACGEAERSEYAESAARAGPPTKDVDVKEAVASAAAASTPLFCHSAHASPDGHKIAFISNVRRHHYIIDISVLPAAVCELEMPEVVQSVCWHTVAHHALCVLFISGDLTIYDTDQSYLGVIVPLYRRIALRPVIERRLADAEAAVHPSPSIPSTAPGTISPAKGATALDKEEVQSTRVKALAGKVSTTRLPPARQAHATTAEVAGFRSLVLHSGGGAIVAGSDIAHSPSYAVAERIDHDEMVPVSSADEVGAEGAASCPPIPKPVMLPTSQLDLVDMYALPPTESIPVILLLSSSGDVYAVHLGDDCLPVVATAAATDDGRVRTREEEVLRRAEVAAAPLSVEVYHLISGDSTGAAGDEAVAVGGCLVDEDAGTHAVFFLTANGLVKGAWVSKPDLLARHRVAHVRAVGSPNISFTLHLSGSLGARASLAPAVPSITHSVSMTLSQNVCVVRSGVAGETAFVMAFPRWDRRRQGWACWRPACADAREREREAAALPLLSTDAAPPSPVALRLPYDTRDSSIAVGCTELLLVPEVSTMDGLCERGSILVISLAAVLRSALYARCGKLGLHPSAGAGATSRLRDPHPAVLDLLNAVPECHRCWLRGVPEAEMSAATLNLVRRIEQLSGDVNRREMVQAQRRRRLVARVANLEGRVAEMDGMLAEWRQIILDGIVHRRGGDAFRTANARLRKVSTMLNELEQQL,not soluble
8,MAHHHHHHMRSTPHGPPPHPRTSSVRQDAITYPYAYAAPGRQAPSAGYEHDDNTTAEAGPTRRCVPGRGNRAMPASNTGPYPSDVNRTLSYPEPAPARTAAPAVAIMQPSSPFEQDHTPVVYTVQNTTTDTHRHETEYGGVLTIRTTTVTRTITERLVASDEDDDSSENGEVYLDDARNEASVPSLHR,not soluble
9,MAHHHHHHMRVRSLLLCIRRDPLQRAVDVAYASGMLLGSGSSRGTTHFSETTAFTSSNFAADLRGGRVGLAGDGGTKCDDRNGELVRGRIQFASRCAEGPFVGASPTVTSCAHIEGVVRQVECGYVGGDRVLQFIIEVEEVPASGGTPMRLPLAVRWRPGSEVAQNRMDEWQKEMERLVGRRVLASGRLQVEECFDSGSRRLYKTPSLVLPATSTVEMISLQELEC,not soluble
10,MAHHHHHHMSDCHWAVIRKAVEAEWDASIIPALAAYIEVPNQSPDFDPQWATNGLLTKAFTILINWMKGQNLLGLSYELMEVEGRTPFLLVEIAGTEPTKNTLLMYGHMDKQPPLHPWGEGLDPHKAVVRDGKLYGRGGADDGYALFSAITSVSVLQRHGIPHGRVIVVIEACEESGSFDLDYYMERCKERIGNVDLMICLDSACLNYSQVWLTTSLRGVTGGVLNVQTLTESMHSGVAGGVVPDTFRIARELLDRVEDSKTGKVLFPEAYCEIPDYVVKSMESMKAVPFKEQFAMADGVSAEPGDNVELALRNFWKPSLTVTGSNLPEPQIAGNVIRTHTSLKLSLRVPPLVDAEKATQAMAKVLVANPPYGAKVWFEPEVPGDGCATPELKPWLVTALNEGSKMAYGNPLAFQGMGASIPFISMLLKAYPQAQFVVTGVLGPKSNAHGPNEFLHIEYAKGLTFAISRVVAEHFSHTPK,soluble
11,MAHHHHHHMSEERVKILVLGPSRSGKSTIANFLAGLRETPTKGYYETQPLRILEVEIGLDNLKVGGRHVVGPKKAIVQLWDLGGSSKHQAGWQAVAANADGIIYVFNPEVRGAEKELVLWHKNFALDQDKLDERNNFKVRVPDKHSLVFSHHSSMPELAVGDNAIPSLPKQLRGVRAIETSLDYQSGNFKEAFDAMVEQIVVSRIVAEEDEILQKEREAGDAPRMVR,not soluble
12,MAHHHHHHMSGQAGKQVAPVKCKGWAVEKPALKWSTDAVRLSDVTVPAPDPTQIRVRVYAASINPVDWKRVMFPASGSGPGVAGSALKGFKGMHHKPPNYPYPYVVGVDGAGEVESVGRKVTGLKAGDRVMFHSSLTNAHGGSLCEYAVMEESVAVPIPADGARPFSYEEAAAIPCATWTAYVALFDKLRIEPGRSIFVDGASGAVGSCAVQLAHHMGLYVFASCSPSNADYVRSIGADQVLNYHDGIEMVDQILDATEGYGVDYYLAVTNTQDAESFTDALRFGGAVCLLSGVLIPNSNVLFRRQLSVHYVFLNGLHGHPLTRPQLRYIGDQVAKLYQSGAFRLDVEVLPFAEAAKALDRSATGNVNHKKLIVQVASP,soluble
13,MAHHHHHHMSIAKKRLAQERAEWRKDHPAGFSAKYSPMSDGKGLDIMKWICKIPGKKGGLWEGGEYPLTMEFTEDYPSKPPKCKFTTVLFHPNIYPSGTVCLSILNEDEDWKPSITIKQILLGIQDLLDNPNPNSPAQAEPFLLYQQDRDSYEKKVKKQAIEFRPKD,not soluble
